Data reported in CN113621065A (WUHAN HSA BIND BIOTECHNOLOGY CO LTD, dated 2021).

What was measured:
人4-1BB胞外区蛋白(hu4-1BB ECD) = molecular target: T1, 人4-1BB胞外区蛋白(hu4-1BB ECD) (human, UniProt Q07011 24-186); experiment: single-phage ELISA, 100 ng/well coated 4-1BB
T1 construct: extracellular domain; also called 人4-1BB蛋白; 抗原4-1BB

阴性对照蛋白BSA = molecular target: T2, 阴性对照蛋白BSA (UniProt P02769 25-607); experiment: single-phage ELISA, 100 ng/well coated protein
T2 construct: also called 对照BSA
T2 sequence (P02769 25-607 limits assumed): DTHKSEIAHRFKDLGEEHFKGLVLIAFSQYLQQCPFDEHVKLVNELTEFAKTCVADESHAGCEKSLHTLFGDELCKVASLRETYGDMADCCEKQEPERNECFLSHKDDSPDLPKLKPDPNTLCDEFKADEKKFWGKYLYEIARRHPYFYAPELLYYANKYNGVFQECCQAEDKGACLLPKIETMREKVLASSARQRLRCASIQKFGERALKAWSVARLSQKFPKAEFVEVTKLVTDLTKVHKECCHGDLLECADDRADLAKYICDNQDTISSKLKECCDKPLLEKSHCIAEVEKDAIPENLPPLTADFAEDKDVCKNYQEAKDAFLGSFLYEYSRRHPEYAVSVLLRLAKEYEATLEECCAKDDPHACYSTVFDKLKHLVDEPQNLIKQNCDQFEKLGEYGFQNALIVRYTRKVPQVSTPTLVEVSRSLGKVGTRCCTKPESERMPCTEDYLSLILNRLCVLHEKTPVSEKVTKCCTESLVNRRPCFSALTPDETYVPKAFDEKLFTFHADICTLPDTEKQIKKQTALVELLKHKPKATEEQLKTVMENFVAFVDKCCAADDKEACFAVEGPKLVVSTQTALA

B1: 抗体(scFv)8F5 (scFv)
scFv: QVQLVQSGAEVKKPGASVKVSCKPSGYTFTSHYIHWVRQAPGQGLEWMGWINPNSGGTNYAQKFQGRVTMTRDTSISTAYMELSRLRSDDTAVYYCARDGGGMDVWGKGTMVTVSSGGGGSGGGGSGGGGSQSALTQPASVSGSPGQSITISCTGTSSDVGGYDFVSWYQHHPGKAPKLMIYGVANRPSGVSNRFSGSKSGNTASLTISGLQAEDDADYYCSSYSSTSTRYVFGTGTKVTVLG
人4-1BB胞外区蛋白(hu4-1BB ECD)
  binding result: binds
阴性对照蛋白BSA
  binding result: no binding
